According to paper PMC8469155:
Blank lines part the entries; values can stand above or below the substance they belong to.

Experiments:
[1] = molecular target: alternatively spliced EDB domain of fibronectin (recombinant EDB protein)
L19-TNF^I97A (human) [2] = experiment: SEC; Superdex 200 Increase 10/300 column, ÄKTA FPLC, protein dialysed into PBS pH 7.4; peak at 12 mL corresponds to the homotrimer
L19-TNF^Y59F (human) = experiment: as above
L19-TNF^I97A (human) [3] = experiment: SPR; BIAcore X100; EDB covalently immobilised on a CM5 chip (1500-2000 RU), L19-TNF protein captured on it through L19-EDB (340 RU); TNFR1 injected for 30 s in a 1:2 dilution series from 1000 nM; PBS pH 7.4; regeneration 10 mM HCl; independent chip for each protein; global fit, 1:1 Langmuir model
L19-TNF^WT (human) [4] = experiment: as above
L19-TNF^S147A (human) = experiment: SEC; Superdex 200 Increase 10/300 column, ÄKTA FPLC, protein dialysed into PBS pH 7.4; peak at 12 mL corresponds to the homotrimer
[5] = molecular target: tumor necrosis factor receptor 1 (TNFR-1) (UniProt P19438); experiment: SPR; conditions: response read at end of injection (~50-55 s), L19-TNF mutein captured on EDB-coated CM5 chip, read off a plot
L19-TNF^Q102N (human) = experiment: SEC; Superdex 200 Increase 10/300 column, ÄKTA FPLC, protein dialysed into PBS pH 7.4; peak at 12 mL corresponds to the homotrimer
L19-TNF^Y119S (human) = experiment: as above
L19-TNF^WT (human) [6] = experiment: as above

Substance: L19-TNF^Y59F
stoichiometry N (L19-TNF^Y59F (human)): 3

Substance: L19-TNF^S147A
stoichiometry N (L19-TNF^S147A (human)): 3

Substance: L19-TNF^WT Q102N
response ([5]; 125 nM TNFR1): 28 RU
response ([5]; 500 nM TNFR1): 45 RU
response ([5]; 1000 nM TNFR1): 45 RU

Substance: L19-TNF^Q102N
stoichiometry N (L19-TNF^Q102N (human)): 3

Substance: L19-TNF^Y119S
stoichiometry N (L19-TNF^Y119S (human)): 3

Further lines, with some results ahead:

stoichiometry N (L19-TNF^I97A (human) [2]): 3
Substance: L19-TNF^I97A
EC50 of cytotoxicity on A-375 cells (cell viability, with actinomycin D), 100 nM EDB Coating (M); without EDB coating 2.273 × 10^−9 M [1]: 2.25e-10 M

fold faster dissociation rate against L19-TNF^WT (L19-TNF^I97A (human) [3]): 50 fold
Kd (L19-TNF^WT (human) [4]): 10 nM
Substance: tumor necrosis factor receptor 1 (TNFR-1) (from UniProt P19438 30-455)

stoichiometry N (L19-TNF^WT (human) [6]): 3
Substance: L19-TNF^WT
